B1: BBSome complex member BBS4 (Homo sapiens), Q96RK4 (parent)
chain: MAEERVATRTQFPVSTESQKPRQKKAPEFPILEKQNWLIHLHYIRKDYEACKAVIKEQLQETQGLCEYAIYVQALIFRLEGNIQESLELFQTCAVLSPQSADNLKQVARSLFLLGKHKAAIEVYNEAAKLNQKDWEISHNLGVCYIYLKQFNKAQDQLHNALNLNRHDLTYIMLGKIHLLEGDLDKAIEVYKKAVEFSPENTELLTTLGLLYLQLGIYQKAFEHLGNALTYDPTNYKAILAAGSMMQTHGDFDVALTKYRVVACAVPESPPLWNNIGMCFFGKKKYVAAISCLKRANYLAPFDWKILYNLGLVHLTMQQYASAFHFLSAAINFQPKMGELYMLLAVALTNLEDIENAKRAYAEAVHLDKCNPLVNLNYAVLLYNQGEKKNALAQYQEMEKKVSLLKDNSSLEFDSEMVEMAQKLGAALQVGEALVWTKPVKDPKSKHQTTSTSKPASFQQPLGSNQALGQAMSSAAAYRTLPSGAGGTSQFTKPPSLPLEPEPAVESSPTETSEQIREK
partner: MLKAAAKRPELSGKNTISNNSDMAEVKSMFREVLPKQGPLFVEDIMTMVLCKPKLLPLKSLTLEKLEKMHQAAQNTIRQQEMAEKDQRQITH

Variants of: B1
Settings: with bbip1_human BBIP1, A8MTZ0

effect of a mutation on the interaction	Variant
with no effect	MAEERVATRTQFPVSTESQKPRQKKAPEFPILEKQNWLIHLHYIRKDYEACKAVIKEQLQETQGLCEYAIYVQALIFRLEGNIQESLELFQTCAVLSPQSADNLKQVARSLFLLGKHKAAIEVYNEAAKLNQKDWEISHNLGVCYIYLKQFNKAQDQLHNALNLNRHDLTYIMLGKIHLLEGDLDKAIEVYKKAVEFSPENTELLTTLGLLYLQLGIYQKAFEHLGNALTYDPTNYKAILAAGSMMQTHGDFDVALTKYRVVACAVPESPPLWNNIGMCFFGKKKYVAAISCLKRANYLAPFDWKILYNLGLVHLTMQQYASAFHFLSAAINFQPKMGELYMLLAVALTNLEDIENAKRAYAEAVHLDKCNPLVNLNYAVLLYNQGEKKNALAQYQEMEKKVSLLKDNSSLEFDSEMVEMAQKLGAALQVGEALVWTKPVKDPKSKHQTTSTSKPASFQQPLGSNQALGQAMSSAAAYKTLPSGAGGTSQFTKPPSLPLEPEPAVESSPTETSEQIREK [R479K]
with no effect	MAEERVATRTQFPVSTESQKPRQKKAPEFPILEKQNWLIHLHYIRKDYEACKAVIKEQLQETQGLCEYAIYVQALIFRLEGNIQESLELFQTCAVLSPQSADNLKQVARSLFLLGKHKAAIEVYNEAAKLNQKDWEISHNLGVCYIYLKQFNKAQDQLHNALNLNRHDLTYIMLGKIHLLEGDLDKAIEVYKKAVEFSPENTELLTTLGLLYLQLGIYQKAFEHLGNALTYDPTNYKAILAAGSMMQTHGDFDVALTKYRVVACAVPESPPLWNNIGMCFFGKKKYVAAISCLKRANYLAPFDWKILYNLGLVHLTMQQYASAFHFLSAAINFQPKMGELYMLLAVALTNLEDIENAKRAYAEAVHLDKCNPLVNLNYAVLLYNQGEKKNALAQYQEMEKKVSLLKDNSSLEFDSEMVEMAQKLGAALQVGEALVWTKPVKDPKSAHQTTSTSKPASFQQPLGSNQALGQAMSSAAAYRTLPSGAGGTSQFTKPPSLPLEPEPAVESSPTETSEQIREK [K446A]
with no effect	MAEERVATRTQFPVSTESQKPRQKKAPEFPILEKQNWLIHLHYIRKDYEACKAVIKEQLQETQGLCEYAIYVQALIFRLEGNIQESLELFQTCAVLSPQSADNLKQVARSLFLLGKHKAAIEVYNEAAKLNQKDWEISHNLGVCYIYLKQFNKAQDQLHNALNLNRHDLTYIMLGKIHLLEGDLDKAIEVYKKAVEFSPENTELLTTLGLLYLQLGIYQKAFEHLGNALTYDPTNYKAILAAGSMMQTHGDFDVALTKYRVVACAVPESPPLWNNIGMCFFGKKKYVAAISCLKRANYLAPFDWKILYNLGLVHLTMQQYASAFHFLSAAINFQPKMGELYMLLAVALTNLEDIENAKRAYAEAVHLDKCNPLVNLNYAVLLYNQGEKKNALAQYQEMEKKVSLLKDNSSLEFDSEMVEMAQKLGAALQVGEALVWTKPVKDPKSKHQTTSTSKPASFQQPLGSNQALGQAMSSAAAYRTLPSGAGGTSQFTKPPSLPLEPEPAVKSSPTETSEQIREK [E506K]
with no effect	MAEERVATRTQFPVSTESQKPRQKKAPEFPILEKQNWLIHLHYIRKDYEACKAVIKEQLQETQGLCEYAIYVQALIFRLEGNIQESLELFQTCAVLSPQSADNLKQVARSLFLLGKHKAAIEVYNEAAKLNQKDWEISHNLGVCYIYLKQFNKAQDQLHNALNLNRHDLTYIMLGKIHLLEGDLDKAIEVYKKAVEFSPENTELLTTLGLLYLQLGIYQKAFEHLGNALTYDPTNYKAILAAGSMMQTHGDFDVALTKYRVVACAVPESPPLWNNIGMCFFGKKKYVAAISCLKRANYLAPFDWKILYNLGLVHLTMQQYASAFHFLSAAINFQPKMGELYMLLAVALTNLEDIENAKRAYAEAVHLDKCNPLVELNYAVLLYNQGEKKNALAQYQEMEKKVSLLKDNSSLEFDSEMVEMAQKLGAALQVGEALVWTKPVKDPKSKHQTTSTSKPASFQQPLGSNQALGQAMSSAAAYRTLPSGAGGTSQFTKPPSLPLEPEPAVESSPTETSEQIREK [N375E]
with no effect	MAEERVATRTQFPVSTESQKPRQKKAPEFPILEKQNWLIHLHYIRKDYEACKAVIKEQLQETQGLCEYAIYVQALIFRLEGNIQESLELFQTCAVLSPQSADNLKQVARSLFLLGKHKAAIEVYNEAAKLNQKDWEISHNLGVCYIYLKQFNKAQDQLHNALNLNRHDLTYIMLGKIHLLEGDLDKAIEVYKKAVEFSPENTELLTTLGLLYLQLGIYQKAFEHLGNALTYDPTNYKAILAAGSMMQTHGDFDVALTKYRVVACAVPESPPLWNNIGMCFFGKKKYVAAISCLKRANYLAPFDWKILYNLGLVHLTMQQYASAFHFLSAAINFQPKMGELYMLLAVALTNLEDIENAKRAYAEAVHLDKCNPLVNLNYAVLLYNQGEKKNALAQYQEMEKKVSLLKDNSSLEFDSEMVEMAQKLGAALQVGEALVATKPVKDPKSKHQTTSTSKPASFQQPLGSNQALGQAMSSAAAYRTLPSGAGGTSQFTKPPSLPLEPEPAVESSPTETSEQIREK [W436A]
disrupting interaction strength	MAEERVATRTQFPVSTESQKPRQKKAPEFPILEKQNWLIHLHYIRKDYEACKAVIKEQLQETQGLCEYAIYVQALIFRLEGNIQESLELFQTCAVLSPQSADNLKQVARSLFLLGKHKAAIEVYNEAAKLNQKDWEISHNLGVCYIYLKQFNKAQDQLHNALNLNRHDLTYIMLGKIHLLEGDLDKAIEVYKKAVEFSPENTELLTTLGLLYLQLGIYQKAFEHLGNALTYDPTNYKAILAAGSMMQTHGDFDVALTKYRVVACAVPESPPLWNNIGMCFFGKKKYVAAISCLKRANYLAPFDWKILYNLGLVHLTMQQYASAFHSLSAAINFQPKMGELYMLLAVALTNLEDIENAKRAYAEAVHLDKCNPLVNLNYAVLLYNQGEKKNALAQYQEMEKKVSLLKDNSSLEFDSEMVEMAQKLGAALQVGEALVWTKPVKDPKSKHQTTSTSKPASFQQPLGSNQALGQAMSSAAAYRTLPSGAGGTSQFTKPPSLPLEPEPAVESSPTETSEQIREK [F326S]
with no effect	MAEERVATRTQFPVSTESQKPRQKKAPEFPILEKQNWLIHLHYIRKDYEACKAVIKEQLQETQGLCEYAIYVQALIFRLEGNIQESLELFQTCAVLSPQSADNLKQVARSLFLLGKHKAAIEVYNEAAKLNQKDWEISHNLGVCYIYLKQFNKAQDQLHNALNLNRHDLTYIMLGKIHLLEGDLDKAIEVYKKAVEFSPENTELLTTLGLLYLQLGIYQKAFEHLGNALTYDPTNYKAILAAGSMMQTHGDFDVALTKYRVVACAVPESPPLWNNIGMCFFGKKKYVAAISCLKRANYLAPFAWKILYNLGLVHLTMQQYASAFHFLSAAINFQPKMGELYMLLAVALTNLEDIENAKRAYAEAVHLDKCNPLVNLNYAVLLYNQGEKKNALAQYQEMEKKVSLLKDNSSLEFDSEMVEMAQKLGAALQVGEALVWTKPVKDPKSKHQTTSTSKPASFQQPLGSNQALGQAMSSAAAYRTLPSGAGGTSQFTKPPSLPLEPEPAVESSPTETSEQIREK [D303A]
with no effect	MAEERVATRTQFPVSTESQKPRQKKAPEFPILEKQNWLIHLHYIRKDYEACKAVIKEQLQETQGLCEYAIYVQALIFRLEGNIQESLELFQTCAVLSPQSADNLKQVARSLFLLGKHKAAIEVYNEAAKLNQKDWEISHNLGVCYIYLKQFNKAQDQLHNALNLNRHDLTYIMLGKIHLLEGDLDKAIEVYKKAVEFSPENTELLTTLGLLYLQLGIYQKAFEHLGNALTYDPTNYKAILAAGSMMQTHGDFDVALTKYRVVACAVPESPPLWNNIGMCFFGKKKYVAAISCLKRANYLAPFDWKILYNLGLVHLTMQQYASAFHFLSAAINFQPKMGELYMLLAVALTNLEDIENAKRAYAEAVHLDKCNPLVNLNYAVLLYNQGEKKNALAQEQEMEKKVSLLKDNSSLEFDSEMVEMAQKLGAALQVGEALVWTKPVKDPKSKHQTTSTSKPASFQQPLGSNQALGQAMSSAAAYRTLPSGAGGTSQFTKPPSLPLEPEPAVESSPTETSEQIREK [Y395E]
with no effect	MAEERVATRTQFPVSTESQKPRQKKAPEFPILEKQNWLIHLHYIRKDYEACKAVIKEQLQETQGLCEYAIYVQALIFRLEGNIQESLELFQTCAVLSPQSADNLKQVARSLFLLGKHKAAIEVYNEAAKLNQKDWEISHNLGVCYIYLKQFNKAQDQLHNALNLNRHDLTYIMLGKIHLLEGDLDKAIEVYKKAVEFSPENTELLTTLGLLYLQLGIYQKAFEHLGNALTYDPTNYKAILAAGSMMQTHGDFDVALTKYRVVACAVPESPPLWNNIGMCFKGKKKYVAAISCLKRANYLAPFDWKILYNLGLVHLTMQQYASAFHFLSAAINFQPKMGELYMLLAVALTNLEDIENAKRAYAEAVHLDKCNPLVNLNYAVLLYNQGEKKNALAQYQEMEKKVSLLKDNSSLEFDSEMVEMAQKLGAALQVGEALVWTKPVKDPKSKHQTTSTSKPASFQQPLGSNQALGQAMSSAAAYRTLPSGAGGTSQFTKPPSLPLEPEPAVESSPTETSEQIREK [F281K]
with no effect	MAEERVATRTQFPVSTESQKPRQKKAPEFPILEKQNWLIHLHYIRKDYEACKAVIKEQLQETQGLCEYAIYVQALIFRLEGNIQESLELFQTCAVLSPQSADNLKQVARSLFLLGKHKAAIEVYNEAAKLNQKDWEISHNLGVCYIYLKQFNKAQDQLHNALNLNRHDLTYIMLGKIHLLEGDLDKAIEVYKKAVEFSPENTELLTTLGLLYLQLGIYQKAFEHLGNALTYDPTNYKAILAAGSMMQTHGDFDVALTKYRVVACAVPESPPLWNNIGMCFFGKKKYVAAISCLKRANYLAPFDWKILYNLGLVHLTMQQYASAFHFLSAAINFQPKMGELYMLLAVALTNLEDIENAKRAYAEAVHLDKCNKLVNLNYAVLLYNQGEKKNALAQYQEMEKKVSLLKDNSSLEFDSEMVEMAQKLGAALQVGEALVWTKPVKDPKSKHQTTSTSKPASFQQPLGSNQALGQAMSSAAAYRTLPSGAGGTSQFTKPPSLPLEPEPAVESSPTETSEQIREK [P372K]
with no effect	MAEERVATRTQFPVSTESQKPRQKKAPEFPILEKQNWLIHLHYIRKDYEACKAVIKEQLQETQGLCEYAIYVQALIFRLEGNIQESLELFQTCAVLSPQSADNLKQVARSLFLLGKHKAAIEVYNEAAKLNQKDWEISHNLGVCYIYLKQFNKAQDQLHNALNLNRHDLTYIMLGKIHLLEGDLDKAIEVYKKAVEFSPENTELLTTLGLLYLQLGIYQKAFEHLGNALTYDPTNYKAILAAGSMMQTHGDFDVALTKYRVVACAVPESPPLWNNIGMCFFGKKKYVAAISCLKEANYLAPFDWKILYNLGLVHLTMQQYASAFHFLSAAINFQPKMGELYMLLAVALTNLEDIENAKRAYAEAVHLDKCNPLVNLNYAVLLYNQGEKKNALAQYQEMEKKVSLLKDNSSLEFDSEMVEMAQKLGAALQVGEALVWTKPVKDPKSKHQTTSTSKPASFQQPLGSNQALGQAMSSAAAYRTLPSGAGGTSQFTKPPSLPLEPEPAVESSPTETSEQIREK [R295E]
disrupting interaction strength	MAEERVATRTQFPVSTESQKPRQKKAPEFPILEKQNWLIHLHYIRKDYEACKAVIKEQLQETQGLCEYAIYVQALIFRLEGNIQESLELFQTCAVLSPQSADNLKQVARSLFLLGKHKAAIEVYNEAAKLNQKDWEISHNLGVCYIYLKQFNKAQDQLHNALNLNRHDLTYIMLGKIHLLEGDLDKAIEVYKKAVEFSPENTELLTTLGLLYLQLGIYQKAFEHLGNALTYDPTNYKAILAAGSMMQTHGDFDVALTKYRVVACAVPESPPLWNNIGMCFFGKKKYVAAISCLKRVNYLAPFDWKILYNLGLVHLTMQQYASAFHFLSAAINFQPKMGELYMLLAVALTNLEDIENAKRAYAEAVHLDKCNPLVNLNYAVLLYNQGEKKNALAQYQEMEKKVSLLKDNSSLEFDSEMVEMAQKLGAALQVGEALVWTKPVKDPKSKHQTTSTSKPASFQQPLGSNQALGQAMSSAAAYRTLPSGAGGTSQFTKPPSLPLEPEPAVESSPTETSEQIREK [A296V]
